Values of other authors, collected in paper PMC5427998 (Chemical Science, 2017).
Bridges are numbered along the chain shown (N, C = ends). Where no end group is shown, it is not given here.

Settings: 95 °C

Substance: Microcin J25 (GGAGHVPEYFVGIGTPISFYG; lactam N-8; UniProt Q9X2V7 38-58, looked up) [MccJ25]
- thermal denaturation / retention of threaded structure: did not denature
